Results reported in PMC6139311.

Assays:
[1] = tested on: Lrp;MBP-RctB (Escherichia coli;Vibrio cholerae); experiment: EMSA; conditions: scale: fold higher RctB affinity than to naked crtS
[2] = tested on: Lrp (Escherichia coli); experiment: EMSA

Q: Which results are given for “crtS (153 bp with ~100 bp lambda flanks)”?
A: binding signal [1]: 10; Kd [2]: 5.5 nM
